Measurements from paper doi:10.1101/366336.

How the values were obtained:
[1] = biological target: hPcf11 (in CF II);hClp1 (human;human) (UniProt O94913+Q92989); assay: filter binding; conditions: cap analog
hClp1 (human) = biological target: T1, hClp1 (human) (UniProt Q92989); assay: filter binding; conditions: cap analog
T1 sequence: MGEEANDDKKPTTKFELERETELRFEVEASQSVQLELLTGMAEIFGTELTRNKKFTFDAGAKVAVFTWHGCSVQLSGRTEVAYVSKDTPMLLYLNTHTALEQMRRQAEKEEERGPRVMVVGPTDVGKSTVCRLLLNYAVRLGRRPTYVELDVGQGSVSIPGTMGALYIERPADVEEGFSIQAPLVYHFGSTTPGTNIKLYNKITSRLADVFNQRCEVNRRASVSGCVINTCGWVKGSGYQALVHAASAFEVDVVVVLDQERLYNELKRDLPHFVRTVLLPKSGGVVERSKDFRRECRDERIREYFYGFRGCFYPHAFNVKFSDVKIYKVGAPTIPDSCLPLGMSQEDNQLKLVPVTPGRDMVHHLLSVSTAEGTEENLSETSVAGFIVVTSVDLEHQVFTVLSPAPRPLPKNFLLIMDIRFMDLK

Chain of hPcf11 (in CF II);hClp1 (human;human) (O94913 whole entry, one chain of several): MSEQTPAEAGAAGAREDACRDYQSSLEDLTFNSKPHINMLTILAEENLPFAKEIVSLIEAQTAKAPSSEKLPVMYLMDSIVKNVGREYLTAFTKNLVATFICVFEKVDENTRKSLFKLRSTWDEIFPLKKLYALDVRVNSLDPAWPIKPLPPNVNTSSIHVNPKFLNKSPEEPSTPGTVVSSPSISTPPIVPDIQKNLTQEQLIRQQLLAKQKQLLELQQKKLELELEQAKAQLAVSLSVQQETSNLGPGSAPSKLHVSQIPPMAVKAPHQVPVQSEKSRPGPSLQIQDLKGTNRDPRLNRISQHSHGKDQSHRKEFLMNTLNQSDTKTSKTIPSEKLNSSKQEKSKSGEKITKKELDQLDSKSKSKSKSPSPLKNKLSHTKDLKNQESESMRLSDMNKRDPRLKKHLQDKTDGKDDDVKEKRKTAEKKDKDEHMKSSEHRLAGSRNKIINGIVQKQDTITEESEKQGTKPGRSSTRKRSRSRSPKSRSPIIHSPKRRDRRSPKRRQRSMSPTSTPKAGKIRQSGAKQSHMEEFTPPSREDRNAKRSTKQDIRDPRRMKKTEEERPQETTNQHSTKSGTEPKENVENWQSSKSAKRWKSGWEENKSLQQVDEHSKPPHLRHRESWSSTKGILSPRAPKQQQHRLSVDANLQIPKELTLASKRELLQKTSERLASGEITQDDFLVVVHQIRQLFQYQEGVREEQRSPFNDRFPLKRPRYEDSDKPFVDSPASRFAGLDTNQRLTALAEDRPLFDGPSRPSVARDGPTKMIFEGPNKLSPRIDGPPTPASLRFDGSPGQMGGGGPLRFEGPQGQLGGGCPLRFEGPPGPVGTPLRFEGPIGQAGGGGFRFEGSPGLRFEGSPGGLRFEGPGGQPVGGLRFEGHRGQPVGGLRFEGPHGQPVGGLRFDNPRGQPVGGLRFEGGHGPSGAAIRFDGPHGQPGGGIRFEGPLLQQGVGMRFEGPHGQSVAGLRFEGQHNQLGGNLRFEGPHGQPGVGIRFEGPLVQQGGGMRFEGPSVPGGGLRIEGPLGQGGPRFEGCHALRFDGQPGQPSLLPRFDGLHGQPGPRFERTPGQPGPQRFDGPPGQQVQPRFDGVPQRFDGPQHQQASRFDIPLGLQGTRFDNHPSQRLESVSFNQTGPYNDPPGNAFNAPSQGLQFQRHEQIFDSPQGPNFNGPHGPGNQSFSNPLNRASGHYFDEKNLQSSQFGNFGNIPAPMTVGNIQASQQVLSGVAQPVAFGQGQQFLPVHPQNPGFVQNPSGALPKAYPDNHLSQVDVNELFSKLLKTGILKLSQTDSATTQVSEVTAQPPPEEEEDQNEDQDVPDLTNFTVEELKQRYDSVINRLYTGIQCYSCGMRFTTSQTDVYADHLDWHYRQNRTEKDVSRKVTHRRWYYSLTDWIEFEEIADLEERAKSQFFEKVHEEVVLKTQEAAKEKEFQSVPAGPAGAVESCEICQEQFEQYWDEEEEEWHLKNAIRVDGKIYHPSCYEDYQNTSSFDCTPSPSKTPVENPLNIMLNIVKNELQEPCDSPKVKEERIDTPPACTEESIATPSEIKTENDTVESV

| Substance | K half [1] [nM] | K half (hClp1 (human)) [nM] |
| --- | --- | --- |
| L3 RNA | 0.9 |  |
| SV40 late RNA | 0.4 | 140 |
